Our source for the response units (relative reaction value) values is article PMC7390872.

For this experiment, the target named is recombinant thioredoxin (rTRX) [thioredoxin: P0AA25]. Description: SPR; BIAcore T200; anti-His-tag antibody amine-coupled to a CM5 chip captures the His-tagged recombinant protein (0.1 mg/mL, about 200 RU); ligands (0.1 mg/mL) injected at 10 μL/min for 180 s; HBS-EP pH 7.5 (10 mM HEPES, 150 mM NaCl, 3 mM EDTA, 0.005% P20); relative reaction value, RUs >10 considered positive.
recombinant thioredoxin (rTRX) [thioredoxin: P0AA25], sequence (P0AA25 whole entry): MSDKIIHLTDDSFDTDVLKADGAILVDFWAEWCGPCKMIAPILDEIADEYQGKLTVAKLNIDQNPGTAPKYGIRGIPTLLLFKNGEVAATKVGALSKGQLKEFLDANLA

As to laminin protein, the response units (relative reaction value) was under 10 RUs.
